Results: a protein production outcome set (Wang et al. 2014)

Assay: label from the status in PepcDB records

MFIHVGSDKVLVKFIVSKFIKDYSNISNKKVRENYGILSSIMGLIVNLILFVIELSIGIFINSIAVIADAFHNLADVSASVITLIGFKLSNKPADKEHPFGHGRVEYLSALLVSAIILLVGVEFIKTSFLRILSPEPVSFNLISFIIMLIAIPLKLWLSLFNKNIGKKINSSALKASGADALNDVYILSSVILSLLVSAFSTISIDGYVGVLIGALIIWSAVNLMKDTIDPLLGQAPDPNLVKSIKKMALKCDVILGVHDLIIHNYGPGRTMISFHAEVPYNIPIMTLHSKIDETEKRISEELDIFVVIHMDPLLIGSPEVSEAKRYVSKILKDFPSVQSFHDFRIVGDGEDKKLIFDIVVPFDVDISEKKLSKLGDDIKSEIIRRHPHYDCVITVDRDYSGI
protein production: failed

MFIKGVILSSYGVNGYARVKSISNNFCDFINLKNNKVLLKKSNSSSVEVKVVDVNIKGNSLFLKFEEIDTPEAVRPLIGFELWVDDSLASSLKEGEYYLGKLIGYAIVNNNKKLGEVVAFFEYLNSVFLEVRVGIKFFFIPFLSIYIGDINTQEKTIELKVLDLLKLEHHHHHH
protein production: failed

MFIKLMRNIFSELTSHIQNMKLYFKRSLLVFSLMSSFCVASERSAWEEVYAKSQHKQTETALKLLQDRYHSLPEGAEKLYLTSKLHGYFVLKGQPYYGELVNSHDTYALTEQRFLDALNHEESLDYHSAEETYLTFYAEMKQKNDQDGMVLFEYHLCRLFQRHGRPYQARFYCSQMDQRLLNAEDPLFPRYRGLHLVANNLEFLGEYEEALQTYDLLLSLLPDYVDPSGIYNDVGLLMGTLGQYESALDYLNKALEYRLEQGNPLLIAQVEHSLGDTYFKQGRYEESILYFEQAKAHLTPANYLFGLAYVHLGLGKAYIELNNFVEGDQHLFQALEYVNQHKDQHLQGLIYLSLAQAHFKEQKYAQAIDYANQAVAISESASLPRIKAQAYLQLAKIAEAEQQYQEALSWYRQYAESELLLRNTEQRKAFEALDLAKAELEQKRGVNFWRENYQALAEKYEMLKWQRVSLSLLVIVFALILPIAHYRRRKECDQNQQDSLHGVLSRTSGLERLTHIEACQQTEHVHLLALLDIDQLRQFNERHGYERGDIALQNTINTLLHQLRAKEFVCRLGDDEFLVVMPNCRRTLSETRLFVLHHALNGKTPTDAKSTVGLSVTLSYLAVESGLASFTHFYPKLDSALSIAKQSGNGGLIDAADPTNALLTACS
protein production: failed

MFISVLDLFKIGIGPSSSHTMGPMTAANVFRDHVDQLVSQTPDDLNYRVYCVLKGSLAFTGRGHATDRAVALGLHGHSPVSLAGEDVNALTAKLWATDTLQLTSGREIGFNPEDDIVFDKSDPLPQHPNGMIFYLLDEEGKKILSETFFSIGGGFICTLAEINQ
protein production: not failed

MFIYFPKNYVWSMSTVIAATHGGSIGEIDEFCRPLLDKSSDDADVGTVEFLHAWIGGADKLIKMAEQDLEKNRELSAAKKYYRAALYYLIAERMQEQGHPERLKVYKRYLELAELYRKYKKDDVKRVEIPYQNSHLSAIYAKGKTTDEKQAIVVMMNGLDSTKELMSYCPLADELVERGISVLMVDQPGTGEAIRLQDLRAVYNSEIWASPIVDWLCEQPEIDQHRIAAFGISLGGYYCPRAVAFEPRFCCAAIWGANHDWRAVQHARLKREGENPVPHYWKHVEWVFGAQDQKEFFEIAENMHLNGVLDRIKVPFLVTHGEKDRQIPLKYAYETYDQLINSPDKELLVIDDEMGGVEHSSIDNPLNAGAYIADWLAEHLNGKTSK
protein production: failed

MFKDKKMLKYIVIYSIIAFGILLTFNMVKDEMLYEKVDYSTFMQMLDKKEVKSVNFSGNQIEITPSDSSNLKGKILYTTNPAVAGITQPDLIKDLTAAGVGFNVTKPENYQLLGLLMSWVFPLILIFFVGRMMFSKMNNKMGGGVMSFGKNNAKLYAENETGITFKDVAGQDEAKESLVEIVDFLHDTRKYVEIGAKLPKGALLVGPPGTGKTLLAKAVAGEAKVPFFSMSGSDFVEMFVGMGAARVRDLFKQAEEKAPCIVFIDEIDAIGKSRDGAIQGNDEREQTLNQLLTEMDGFDSSKGVVILAATNRPEVLDKALLRPGRFDRRIIVDRPDLIGREEILKVHSRDVKLSDDVSLEEIAKSTPGAVGADLANIVNEAALRAVKHGRKFVIQEDLDEAVEVIIAGQEKRDRILSPKEKKIVAYHEVGHALVAALLNNTDPVHKITIVPRTMGALGYTMQLPEEEKYLVSKEEMIDQISVMLGGRAAEEVVFNSITTGASNDIERATQSARNMITIYGMSERFDMMALEAMSNRYLDGRPVRNCSETTAAIADEEVLQVIKKAHEKSIKILIENRELLDEITGVLLDKETIMGDEFMEIVYSKYPEKREADEKAKKEIQSLREQALAKRKEKEEAIKKAREEALRLEEEQRKQAELKAMIEAQEEAAKLARANNEANNDDLDSSKENEEVKSNVNDRATEEKKDDSSTNNKVDGE
protein production: failed

MFKKKGCFMNQLEQKLEQDFGIVFSQKDLLETAFTHTSYANEHRLLNISHNERLEFLGDAALQLVISVYLYNRYPNKPEGEMSKMRSTIVREESLAGFTKACGFEQYIRLGKGEEKSGGRERATILGDLWEAFLGALYLDQGLPAVEKFLNQVMIPQVEKGNFDRVIDYKTALQERLQVNGKVDITYTVIDESGPAHAKEFTMQVAVDGKELSTGLGKSKKLAEQAAAKSALEQLGN
protein production: failed

MFKKWLTWPVFYELTEIYTAPLNIMWFVLGSAIAQYHLGTVNWLNVTLCLVSVFIFDLAVNVSDNYYDYRHARDREGYAQKTNPIGRLQLPVAGVGRLALGLYLISLIPGIWLVMRTGWLVLVLGLVGYVIGIFYTAGPYPINATPLCETVVALAIAFLIELTCVVVSTYGQHPLTWSIVGTTFLLCLPLTLIFFCLQLANNTADRDEDILNHRYTLAYYLGKPGSVRLIQAFLVIGGIWPLVNVLLGLAPVVTIWVVLLLPIMWQGMRPFFEVQDKKKTFITTVKSASLFFILYPVLFVLGTWL
protein production: failed

MFKNNSYKVGVLALALSMALTGCVSDGDDGEQGLKGEQGAPGVVGVDGNDGKSLPRDLNVEVVGRFATGIYGKSAAEIVQFHKSSNAAFAINGASNQIEVISLTNLSTTAVGNPVADESLTSNAFIFPLNVSVTNSAGVEKDMSLGAVNSIAIKKDLLAIAVEGEIKQAHGAILFYSLNELGEGTFIKAVEVGALPDMVTFTPDGSKALVANEGEPNTDYTNDPEGSISVISVVDLMPANVAKTINLSTDIVFSDDNLVPEDFDTDAKRLAILSKAGVKFAGPAGNTVAKDLEPEYITTSSNSKMAYVSLQENNAIGIINLEELTIEVKALGYKDWGKYQLDFSNKDEVPEFKSIQGLYGMYQPDTLASYTWNDTTFIVSANEGDARDYDGFSEEVRVKDIIDTDELNQTLSSELQSQYDVSGGKNYLGRLKVTTALGDEDQNGEFEKLFAYGARSFSIWDKNANLVFDSGDDFGKISAAIMGDNFNAAHTKNKGDNRSDDKGGEPEAIDVGEIAGRTYAFIAQERAGDLFVYDITNPFKTAFVTHYNNRDFTVDYEMDDDLADPCDSSEGMDCTKVNSAGDLGPESIKFVSAIDSPTSKPLLIIGNEVSGTVTVYQITEQ
protein production: failed

MFKRFVLSLAFLIMAAVVSFQVIFTVPEHPQIITQTGSEITEDIRCIEFSGAKALDDNGELNLLVWNIYKQNRANWQSELELFSADKQLLLLQEASMTDSFKQWLVDGSWVSNQVSAFKALGSGAGVISIAQKQPIKACAYTSKEPWLRLPKSALYSQYRLSNGESLAVINVHAINFTVGTEEYTSQLSALETLLKQHSGPIVFAGDFNSWSEYRITAMKQALREANLREVQFSPDHRTQFITGLPLDHVFYRGLTLKNAKAPQSDASDHNPLLVSFTLND
protein production: failed

MFKSNYKGYGSGIISAMAWGLDTVLVGVILSMAPFINTESAIMLAPFVSTFLHDFFSTLWMFIYMIFTRQVGKLFKSLKTPSTKYVILASIFGGPMGMTGYLLSVNYIGPSYAATISSIYPAVGAVLAAIFLKEKISRKGYIGLTISILGIALLGFGNDGGKASLIGFLFAGLSVLGWGSESVICSYGMKDEDISPKQALQIRQFISALFSGVIILPLLKAYPLVFEVLKGNVTFVIIGTALMGTISYVCYYTAIHKLGPTRAMGLNITYVVWAMIFDKVLLGHNITIKMVICALMVMIGSFVVATQPAHEEELTNVTNTAV
protein production: failed

MFKSPENDSLVSAVFDSSPIGIQIIDLETGMREKINQTACVLLGDTKDNLMAKSVFEDCTWLGKDKFLFVIERLKENKTLKNHIVQFENHQGNELTISYDISEFKYRSKRLVTVSMNDVT
protein production: failed

MFKTILLAYDGSEHARRAAEVAKAEAEAHGARLIVVHAYEPVPDYLGEPFFEEALRRRLERAEGVLEEARALTGVPKEDALLLEGVPAEAILQAARAEKADLIVMGTRGLGALGSLFLGSQSQRVVAEAPCPVLLVR
protein production: not failed

MFKVGPIGSKQYYDKSWEEKGRNMISIFGILVHDGHVKANIQVRLNDDEYVTGLSGIFWERKVTSLTFHTNQGKHGPFCNGTGYSSSYMADYKKEIDVKIRDRREFGGFFGSFDDEFDGLTSIGIYVYPTYDNKPTLNQAWDPLYAFAHNQIPTIADGIPVMHIRYKPKLKDRIFSKLDFKRAMLCLIKVFLD
protein production: failed

MFKVPKQSYTAEFKAAAVQRVKDGQGVGAVARELSVSEQTLRNWMKAEQAGKLGGAGAKVVTPEQMELSRLRAENKRLQMELEIAKKAAAYFAKDLL
protein production: failed

MFLDMLSLIRGQKIKLNDALQGQSSFYIQIHYQAAFDLDIASFGLDSQYRLSDERYMTFYNQPETPCQAVRLIENQNKCSRFLVDLAKLPATIQHLVLTAAIDGQNIMSQLQQVTVQILNLQLQPIAELKLDASIFDQERATMLIEIYRKEGIWRLAAIGQGFNAGLAALIQHFGGEVAEEPTAQQTTPVAPQSNIDLKKKLSLQKAEKTGNASIIDLTKKSLVQLEKKKLLGVTARVALVLDASGSMDGQYRRGDVQKVVNRLMPLAIHFDDDGSFECWAFAAETTQLDDVTLSNVNDFINSTQRGWKNWQVGARYNEEIPAIEAVINYFQKFQDQIPTYVLFISDGGVGSRRQMQKILSQAAKLPIFWQFVGIGGRNYGALEKLDEMSGRIVDNCNFFSLDRIDGVSDERLYELLLQEFPDWLIAARQHQIVRN
protein production: failed

MFLDRERELQFLERRYEMGGPEFIVIYGRRRVGKTALLLEFISRHGGIYLLARETSNLENLKRFSDRLSEYFGDDFLKRNPFQNWDAFLEYLNQKATERLVVVIDEFPYLVKGDRSLPSILQEYWDLKLSNGRIFLIICGSSISMMEKLLGYKSPIYGRRTGQINLKPVDFLHAREFLPGYSLEDFIKAYGILGGSPAHLLEFDDSKTIKENLLEYLRSDSLLYQDAFFVLREELEEPRNYFAIMEAVAAGKTSLGEIMNETGLSRATVAKYLSVLIELDFVKREIPITASRKSRRGRYYIKDNYFAFWFRYIHPNIDFIESERRKELLELIIDDLPNYLGGIFENVAIEFLPLISNKLPFKPLKIGRWWHKNEEIDLVAFNEKEEKAILIEVKWKTLNKIEANKILKDLNRKSKILKMKEWEQYHGIIAKRVKDKEKIKGGLIWDLEDIENLKFSPELEHHHHHH
protein production: not failed

MFLEIAKVYLQGLGLASITVILVGIIWVFWRAKKNIDKTARERQSVLYDVLLIALMTAPILAFAFVAIILMIKA
protein production: failed

MFLFMVSRNFSRRDFLKMTAGGVVLASAMPTLSWASLPDEPRVLAMNNLNTGELLETCYFDGNRYVGKELQRLNEFCRDHRRNEVHPMDKRLFDQISQIQKLIGTESEVIVISGYRSPVTNASLRSGSTGVAKKSLHMEGKAIDFRLDGVKLSTVRDAAISLKAGGVGYYPGSNFVHIDTGAVRSW
protein production: failed
